From patent publication US20050158818A1, “Cephalosporin C acylases” (ANTIBIOTICOS S.p.A., priority 2004, published 2005)

Key:
[1] = Acylase kinetics, hydrolysis of glutaryl 7-ACA (7-ACA determined at 415 nm with p-dimethylaminobenzaldehyde); format: biochemical; settings: glutaryl-7ACA as the substrate; after HiTrap Chelating purification
Method: Kinetics parameters of the mutants and HisVAC acylase were determined measuring the hydrolysis of cephalosporin C or glutaryl 7-ACA in 0.1 M phosphate buffer solution, pH 8.0 at 37° C. (then converted in units at 25° C.). The amount of 7-ACA is determined spectrophotometrically, using a standard curve, measuring the yellow intensity at 415 nm (Schiff base), resulting upon reaction with p-dimethylaminobenzaldehyde, using modified Bulasingham method (Biochem. Biophys. Acta 276, 250, 1972).
One acylase unit is the amount of enzyme (in solution or immobilized) which, under the assay conditions, produces one micromole of 7-ACA/minute.

[2] = Stability of the enzyme (pH, temperature); format: physicochemical; settings: 120 min incubation at pH ranging from 5 to 9
Method: (§1) Purified HisVAC is stable after 120 min incubation at pH ranging from 5 to 9. Enzymatic activity increases as a function of the pH of the reaction solution, in the range 5-10, reaching the highest value at 40° C. after 30 minutes reaction.

[3] = Conversion of cephalosporin C to 7-ACA with acylase in solution (HPLC); format: biochemical; settings: 2.27 g/l cephalosporin C, 167.2 total units
Method: 0.053 g cephalosporin C, dihydrate sodium salt (86% purity) is dissolved in 20 ml of 100 mM potassium phosphate buffer, pH 8 (2.27 g/l, assuming a 100% purity) and added to 6.4 ml purified acylase (167.2 total units). The mixture is incubated at 20° C., under stirring, keeping the pH at 8 by addition of diluted sodium hydroxide.

[4] = Dependence of enzymatic activity on pH and temperature; format: biochemical; settings: after 30 minutes reaction
Method: as §1

B1: wild-type: Designed cephalosporin C acylase based on Pseudomonas N176 acylase, Phe at 270, C-terminal LEHHHHHH tag (Seq. ID #1) (protein)
chain: MTMAANTDRAVLQAALPPLSGSLPIPGLSASVRVRRDAWGIPHIKASGEADAYRALGFVHSQDRLFQMELTRRKALGRAAEWLGAEAAEADILVRRLGMEKVCRRDFEALGVEAKDMLRAYVAGVNAFLASGAPLPVEYGLLGAEPEPWEPWHSIAVMRRLGLLMGSVWFKLWRMLALPVVGAANALKLRYDDGGRDLLCIPPGAEADRLEADLATLRPAVDALLKAMGGDASDAAGGGSNNWAVAPGRTATGRPILAGDPHRVFEIPGFYAQHHLACDRFDMIGLTVPGVPGFPHFAHNGKVAYCVTHAFMDIHDLYLEQFAGEGRTARFGNDFEPVAWSRDRIAVRGGADREFDIVETRHGPVIAGDPRDGAALTLRSVQFAETDLSFDCLTRMPGASTVAQLYDATRGWGLIDHNLVAGDVAGSIGHLVRARVPSRPRENGWLPVPGWSGEHEWRGWIPHEAMPRVIDPPGGIIVTANNRVVADDHPDYLCTDCHPPYRAERIMKRLVANPAFAVDDAAAIHADTLSPHVGLLRRRLEALGARDDSAAEGLRQMLVAWDGRMDAASEVASAYNAFRRALTRLVTDRSGLEQAISHPFAAVAPGVSPQGQVWWAVPTLLRDDDAGMLKGWSWDQALSEALSVASQNLTGRSWGEEHRPRFTHPLATQFPAWAGLLNPASRPIGGDGDTVLANGLVPSAGPQATYGALSRYVFDVGNWDNSRWVVFHGASGHPASAHYADQNAPWSDCAMVPMLYSWDRIAAEAVTSQELVPALEHHHHHH
modifications: C-terminal LEHHHHHH tag; Pseudomonas
Question: For B1, which “Specific activity of purified enzyme” value [1] is on record?
Answer: The value was 6.5 U/mg proteins.

Question: What about the “Stability to pH” value [2] of the same molecule?
Answer: Its value is “stable”.

Question: What about the “Maximum conversion to 7-ACA” value ([3]; 100 mM potassium phosphate pH 8, 20° C., HPLC) of the same molecule?
Answer: Its value is 92.8%.

Question: And the “Time to maximum conversion to 7-ACA” value ([3]; pH 8, 20° C.)?
Answer: The value was 150 min.

Question: What about the “Temperature of highest enzymatic activity” value [4] of the same molecule?
Answer: Its value is 40 °C.
